This is an account of results in patent US20140348844A1 (UCB, published 2014).

As usually defined, the Kd is the equilibrium constant for the complex coming apart. High values mean lower affinity, low ones higher affinity. One may read the koff as a measure of how fast the partners let go of each other. For orientation: kon means a measure of how fast the partners come together.

Assay [1] deals with TcdA CROPS456 (TcdA456) (Clostridium difficile ribotype 027, UniProt P16154 2205-2608).
Assay [2] deals with TcdA purified from strain VPI10463 (Clostridium difficile strain VPI10463, UniProt P16154 1-2710). Kind of assay: cell-based or functional assay.
The target in assay [3] is T1, TcdA from ribotype 027 (Clostridium difficile ribotype 027, UniProt P16154 1-2710).
T1 construct: also called TcdA ribotype 027; TcdA whole toxin
In words: estimated from SPR on TcdA sub-domains.

Assay [4] deals with TcdA ribotype 078 (Clostridium difficile ribotype 078). Kind of assay: cell-based or functional assay.
In assay [5] the target is T2, toxin B (VPI 10463) (Clostridium difficile strain VPI 10463, UniProt P18177 2-2366). In words: cell-based or functional assay.
The target in assay [6] is T2, toxin B (VPI 10463). In words: cell-based or functional assay. The source holds these as a separate data set.
Assay [7] deals with T2, toxin B (VPI 10463). In words: cell-based or functional assay. This is another data set of the same source.
Assay [8] addresses T3, TcdB binding (TcdB1234) (Clostridium difficile ribotype 027, UniProt P18177 1833-2366).
T3 construct: also called CROPs1,2,3,4 of Toxin B
Kind of assay: SPR BIAcore 3000, Mab captured on anti-human Fc, TcdB1234 in solution, purified Mab 3 point titration.

Assay [9] has as its target T3, TcdB binding (TcdB1234). Kind of assay: SPR Biacore 3000, biotinylated TcdB1234 on streptavidin chip, antibody at 500 nM, saturating response. For orientation: SPR reads the build-up and loss of mass on a sensor chip optically.

Several values for one entry are separate records, joined by “and”; a condition that tells them apart may be missing. Equal values may be shown once.

B1: CA164_00995.g1 (antibody, V domains shown)
VH: EVQLVESGGGLVQPGGSLRLSCTASGFSLSNYDMIWVRQAPGKGLEYIGFINTGGITYYASWAKGRFTISRDSSTVYLQMNSLRAEDTATYFCARVDDYIGAWGAGLWGQGTLVTVS
VL: DVVMTQSPSTLSASVGDRVTITCQASQSINNYFSWYQQKPGKAPKLLIYGAANLASGVPSRFKGSGSGTEYTLTISSLQPDDFATYSCQNNYGVHIYGAAFGGGTKVEIK
notes: also called CA995; CA164_0995.g1
In [1], B1 registered a Kd of 0.119 nM, a koff of 3.42e-05 s⁻¹ and an association rate constant (kon) of 287000 M⁻¹ s⁻¹. In addition, in assay [2], the “EC50 (ng/ml), TcdA neutralisation on Caco-2 cells, TcdA at LD80” value came out at 37.6 ng/mL. Besides, the “Valency of binding, TcdA, est.” value in assay [3] is 1.

B2: CA164_01000.g1 (antibody, V domains shown)
VH: EVQLVESGGGLIQPGGSLRLSCTVSGIDLSSDAVGWVRQAPGKGLEYIGIIATFDSTYYASWAKGRFTISKASSTTVYLQMNSLRAEDTATYFCARTGSWYYISGWGSYYYGMDLWGQGTLVTVS
VL: EIVMTQSPSTLSASVGDRVTITCQASQSIYSYLAWYQQKPGKAPKLLIYDASTLASGVPSRFKGSGSGTEFTLTISSLQPDDFATYYCQGNAYTSNSHDNAFGGGTKVEIK
Consider B2, for which, in assay [4], the “EC50 values (ng/ml) - TcdA ribotype 078, LD80” value (“EC50 values (ng/ml) … LD80” below) was 2.04 ng/mL; the “EC50 values (ng/ml) - TcdA ribotype 078, LD90” value was 2.41 ng/mL; the “EC50 values (ng/ml) - TcdA ribotype 078, LD95” value is 5.03 ng/mL; the “EC50 values (ng/ml) - TcdA ribotype 078, LDmax” value (“EC50 values (ng/ml) … LDmax” below) was found to be 14.2 ng/mL.

B3: CA164_1134.g5 (antibody, V domains shown)
VH: EVQLQESGPGLVKPSETLSLTCTVSGFSLNSYTITWVRQPPGKGLEWIAAISGGGSTYFNSALKSRVTISRDTSKSQVSLKLSSVTAADTAVYYCTRPRWYPRSYFDYWGRGTLVTVS
VL: DVQLTQSPSFLSASVGDRVTITCKASKSISNHLAWYQEKPGKANKLLIHSGSTLQPGTPSRFSGSGSGTEFTLTISSLQPEDFATYYCQQYDEYPYTFGQGTRLEIK
notes: also called CA1134; CA164_01134.g5
In the case of B3, the “EC50(ng/ml), TcdB neutralisation on Caco-2 cells, constant toxin concentration” value in assay [5] was above 1000 ng/mL. For the same molecule, in [6], the “IC50 (ng/ml), TcdB neutralisation on Caco-2 cells, toxin at LD80” value (“IC50 (ng/ml), TcdB neutralisation” for short) stood at 8 ng/mL. Also, in [7], the “Maximum neutralisation, TcdB LD75” value came out at 45%; the “Maximum neutralisation, TcdB LD86” value came out at 25%; the “Maximum neutralisation, TcdB LD90” value came out at 15%. Also, in assay [8], the Kd is 0.0481 nM and 0.048 nM; the koff stood at 2.45e-05 s⁻¹; the kon is 509000 M⁻¹ s⁻¹.

B4: CA164_1099.g2 (antibody, V domains shown)
VH: EVQLQESGPGLVKPSETLSLTCTVSGFSLQSYTISWVRQPPGKGLEWIAAISGGGSTYYNLPLKSRVTISRDTSKSQVSLKLSSVTAADTAVYYCTRPRWYPRSYFDYWGRGTLVTVS
VL: DVQLTQSPSFLSASVGDRVTITCKASKSISNHLAWYQEKPGKANKLLIHSGSTLQSGTPSRFSGSGSGTEFTLTISSLQPEDFATYYCQQYDEYPYTFGQGTRLEIKR
Consider B4, for which the “IC50 (ng/ml), TcdB neutralisation” value in assay [6] worked out at 2 ng/mL.

B5: CA164_00997.g1 (antibody, V domains shown)
VH: EVQLVESGGGLVQPGGSLRLSCTVSGIDLSSHHMCWVRQAPGKGLEYIGVIYHFGSTYYANWATGRFTISKDSTTVYLQMNSLRAEDTATYFCARASIAGYSAFDPWGQGTLVTVS
VL: ALVMTQSPSSFSASTGDRVTITCQASQSISSYLSWYQQKPGKAPKLLIYRASTLASGVPSRFSGSGSGTEYTLTISCLQSEDFATYYCLGVYGYSNDDGIAFGGGTKVEIK
Consider B5, for which, in [4], the “EC50 values (ng/ml) … LD80” value amounted to 0.33 ng/mL; the “EC50 values (ng/ml) - TcdA ribotype 078, LD90” value came out at 0.64 ng/mL; the “EC50 values (ng/ml) - TcdA ribotype 078, LD95” value was 1.11 ng/mL; the “EC50 values (ng/ml) … LDmax” value stood at 2.57 ng/mL.

B6: CA164_1151.g4 (antibody, V domains shown)
VH: EVQLQESGPGLVKPSETLSLTCTVSGFSLTSYYVHWVRQPPGKGLEWMGCIRTGGNTEYQSEFKSRVTISRDTSKNQVSLKLSSVTAADTAVYYCARGNYGFAYWGQGTLVTVS
VL: AIQMTQSPSSLSASVGDRVTITCKASQNVGNNVAWYQHKPGKAPKLLIYYASNRFTGVPSRFTGGGYGTDFTLTISSLQPEDFATYYCQRVYQSTWTFGQGTKVEIK
notes: also called CA1151; CA1151.g4
On to B6, for which the “IC50 (ng/ml), TcdB neutralisation” value in assay [6] stood at 182 ng/mL. In [7], the “Maximum neutralisation, TcdB LD75” value stood at 45%; the “Maximum neutralisation, TcdB LD86” value turned out to be 25%; the “Maximum neutralisation, TcdB LD90” value stood at 20%. Also, the “Binding Response (RU)” value in [9] turned out to be 1230 RU.

B7: CA164_00922.g1 (antibody, V domains shown)
VH: EVQLVESGGGLVQPGGSLRLSCAASGFTISSYYMSWVRQAPGKGLEWIGIISSGGHFTWYANWAKGRFTISSDSTTVYLQMNSLRDEDTATYFCARAYVSGSSFNGYALWGQGTLVTVS
VL: DPVMTQSPSTLSASVGDRVTITCQASQSISNALAWYQQKPGKAPKLLIYSASSLASGVPSRFKGSGSGTEFTLTISSLQPDDFATYYCQYTHYSHTSKNPFGGGTKVEIK
B7: in assay [4], the “EC50 values (ng/ml) … LD80” value came out at 0.11 ng/mL and the “EC50 values (ng/ml) … LDmax” value is 0.68 ng/mL.
